The assay addresses Tsr2 (in the ITC with yeast ESS2) (S. cerevisiae (yeast)) (UniProt Q06672). The assay can be described thus: ITC; VP-ITC; 20–40 µM Tsr2 variant in the cell, 400–800 µM ESS2 peptide in the syringe; 25 °C, 20 mM NaPi pH 7.1, 1 mM DTT, 10 µM EDTA. On the technique in general: Isothermal titration calorimetry measures the heat released or taken up as one component is titrated into another.

In the case of RPRFNRENKVSPADAAKKAL [ESS2 peptide], the equilibrium dissociation constant (Kd) (usually the equilibrium constant for the complex coming apart) is 700 nM and the stoichiometry N – broadly, a count of units in the complex or per binding partner – turned out to be 1.

The values are drawn from PMC6131548.
